Test results published in the supplement of paper PMC10201428.
± gives the standard deviation of the averaged measurements.

Columns and labels:
[1] = tested on: VchCAST RNA-guided transposition machinery (E. coli BL21(DE3) host, lacZ target); assay: relative integration efficiency (T-RL orientation) vs wild-type transposon end (log2 (normalized fold change)); transposon end mutated: right end (5 bp flank + 75 bp right end); higher = more efficient transposition
Method in brief: (§1)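 Pools of 1549 left-end or 1849 right-end barcoded transposon variants were cloned into a pUC57 mini-transposon donor and co-transformed into E. coli BL21(DE3) with a T7-driven effector plasmid carrying a CRISPR array, tniQ-cas8-cas7-cas6 and tnsA-tnsB-tnsC. Plating used 0.1 mM IPTG at 37°C for 18 h, and input plasmids and genomic integration junctions were PCR-amplified for Illumina sequencing, with two biological output replicates and four reference barcodes. Relative integration efficiency is the log-transformed fold change of output over input barcode abundance, normalised to the reference barcodes.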

[2] = tested on: VchCAST RNA-guided transposition machinery (E. coli BL21(DE3) host, lacZ target); assay: relative integration efficiency (T-LR orientation) vs wild-type transposon end (log2 (normalized fold change)); transposon end mutated: right end (5 bp flank + 75 bp right end); higher = more efficient transposition
Method in brief: as §1

Sequence | relative integration efficiency (log2) [1] | relative integration efficiency (log2) [2]
ACATTTGTTAAAAAAACCATACGTTGATTTTACGAAACCATACGCTGAAATAATCACACCCATAAATTGATATTGCCTCTGATCATAGTCAGACCAACATTGCTACGACCCGTATTCGCACCGACAC | -5.94 ± 0.086 | -5.9 ± 0.37
ACATTTGTTGATACAACCATAAAGTGATATTTACAACCATATATTGATATCTCTCACAACCATAAGTTGATATTTTCTCTGATCATAGTCAGACCAACATTGCTACGACCCGTATTCGCACCGACAC | -0.0164 ± 0.24 | 0.252 ± 0.15
ACATTTGTTCATACAACCATAAAATGATAATTACACCCATAAATGGATCATTATCACCCCCAATTTAACTATAACGCTCTGATCATAGTCAGACCAACATTGCTACGACCCGTATTCGCACCGACAC | -1.84 ± 0.28 | -0.469 ± 0.18
ACATTTGTTGATACAACCATAAAATGATAATTACCACCCATACATTGATAATTATCACACCCATTTAACTATAACGCTCTGATCATAGTCAGACCAACATTGCTACGACCCGTATTCGCACCGACAC | -2.43 ± 0.1 | 0.106 ± 0.04
ACATTTGTTGATACAACCATAAAATGAGCCGGCCACCCATAAATTGAGCCGGCTCACACCCATAAATTGAGCGGTACTCTGATCATAGTCAGACCAACATTGCTACGACCCGTATTCGCACCGACAC | -4.23 ± 0.084 | -1.65 ± 0.23
ACATTTGTTGATACAAAACGAAAATGATAATTACACCCATAAATTGATAATTATCACACCCATAAATTGATATTGCCTCTGATCATAGTCAGACCAACATTGCTACGACCCGTATTCGCACCGACAC | -3.95 ± 0.13 | -6.65 ± 0.98
ACATTTGTTGATACAACCATAAAGTGATATTTACACCCATAAATTGATATTGCTCACAACCATAAGTTGATATTTTCTCTGATCATAGTCAGACCAACATTGCTACGACCCGTATTCGCACCGACAC | -0.138 ± 0.13 | 0.0642 ± 0.26
ACATTTGTTGATACAACCATAAAATGATAATTACACCCATAAATTGATAATTATCAAAACACCCATAAATTGATATTGCCTCTGATCATAGTCAGACCAACATTGCTACGACCCGTATTCGCACCGA | -0.514 ± 0.17 | 2.29 ± 0.22
ACATTAGTTCATACAACCATAAAATGATAATTACACCCATAAATGGATCATTATCACACCCAATTTAACTATAACGCTCTGATCATAGTCAGACCAACATTGCTACGACCCGTATTCGCACCGACAC | -7.359 ± 0.025 | -7.73 ± 1.7
ACATTTGTTGATACAACCATAAAATGATAAATACACCCATAAATTGATAATTGTGACACCGAATTTAACTATAACGCTCTGATCATAGTCAGACCAACATTGCTACGACCCGTATTCGCACCGACAC | -0.896 ± 0.3 | 2.56 ± 0.14
ACATTTGTTGATACAACCATAAAATGATAATTACACCCATAAATTGATAATTATCACACCCATAAATTGATATTGCCTCTGTACCGTTCGTATAATGTATGCTATACCAAGTTATTCGCACCGACAC | -0.351 ± 0.19 | -0.0326 ± 0.059
ACATTTGTTGATACAACCATAAAATGATAATTAATAATTATTTATAATCAGCAACTTAACCACCCATAAATTGATAATTATCACACCCATAAATTGATATTGCCTCTGATCATAGTCAGACCAACAT | -3.17 ± 0.073 | -1.2 ± 2.8
ACATTTGTTGATACAACCATAAACGTCTAATTACACCCATAAATTGATAATTATCACACCCATAAATTGATATTGCCTCTGATCATAGTCAGACCAACATTGCTACGACCCGTATTCGCACCGACAC | -2.72 ± 0.083 | -2.25 ± 0.11
ACATTTGTTGATACAACACTAAAATGATAATTACACCCATAAATTGATAATTATCACACCCATAAATTGATATTGCCTCTGATCATAGTCAGACCAACATTGCTACGACCCGTATTCGCACCGACAC | -1.85 ± 0.15 | -2.04 ± 0.74
ACATTTGTTGATACAACCATAAAATGATCATTACCCCCATCAATTGATAATTATCACACCCAATTTAACTATAACGCTCTGATCATAGTCAGACCAACATTGCTACGACCCGTATTCGCACCGACAC | -3.35 ± 0.24 | -0.291 ± 0.3
ACATTTGTTGATACAACCATAAAATGATAATTACACCCATAAATTGATAATGCGACACAAACGCCCGGTCGCGGTAAGAGGATCATAGTCAGACCAACATTGCTACGACCCGTATTCGCACCGACAC | -0.485 ± 0.11 | 2.69 ± 0.1
ACATTTGTTGATACAACCATAAAATGATAATTACACCCATAAATTGATAATTATCACCAAACGCCCGGTCGCGGTAAGAGGATCATAGTCAGACCAACATTGCTACGACCCGTATTCGCACCGACAC | -0.505 ± 0.14 | 2.47 ± 0.095
ACATTTGTTCATACAACCATAAAATGATAATTACCACCCATAAATTGATAATTATCACACCCATTTAACTATAACGCTCTGATCATAGTCAGACCAACATTGCTACGACCCGTATTCGCACCGACAC | -1.38 ± 0.23 | -0.231 ± 0.23

Sequence | relative integration efficiency (log2) [1] | relative integration efficiency (log2) [2]
ACATTTGTGGATACAACCCTAAAATGATAATTACACCCATAAATTGATAATTATCACCCCCAATTTAACTATAACGCTCTGATCATAGTCAGACCAACATTGCTACGACCCGTATTCGCACCGACAC | -2.2 ± 0.29 | 0.686 ± 0.29
ACATTTGTTGATACAACCATAAAATGATAATTACACCCATAATAACATAATTATCACACCCATAAATTGATATTGCCTCTGATCATAGTCAGACCAACATTGCTACGACCCGTATTCGCACCGACAC | -2.11 ± 0.092 | -1.45 ± 0.04
ACATTTGTTGATACAACCATAAGTTGATATTTTCAACCATATATTGATATCTCTCACAACCATAAAATGATAATTACTCTGATCATAGTCAGACCAACATTGCTACGACCCGTATTCGCACCGACAC | -0.54 ± 0.12 | -0.461 ± 0.17
ACATTTGTTGATACAACCATCAAATGGTAATTCCACCCATAAATTGATAATTATCACACCCAATTTAACTATAACGCTCTGATCATAGTCAGACCAACATTGCTACGACCCGTATTCGCACCGACAC | -2.06 ± 0.2 | 0.505 ± 0.11
ACATTTGTTGATACAACCATATATTGATATCTCCAACCATATATTGATATCTCTCACAACCATAAGTTGATATTTTCTCTGATCATAGTCAGACCAACATTGCTACGACCCGTATTCGCACCGACAC | -0.571 ± 0.19 | -0.0341 ± 0.43
ACATTTGTTGATACCACCATAAAATGGTAATTCCACCCATACATTGATAATTATCACACCCAATTTAACTATAACGCTCTGATCATAGTCAGACCAACATTGCTACGACCCGTATTCGCACCGACAC | -3.16 ± 0.49 | 0.278 ± 0.23
TGTAATGTTGATACAACCATAAAATGATAATTACACCCATAAATTGATAATTATCACACCCATAAATTGATATTGCCTCTGATCATAGTCAGACCAACATTGCTACGACCCGTATTCGCACCGACAC | -0.138 ± 0.063 | -0.169 ± 0.51
ACATTTGTTGATACAACCATAAAATGATAATTACACCCATAAATTGATAATTATCACACCCATAAATTGATATTGCCTCTGATCATAGTCCAACCATAAAATGATAATTAAGACCAAGCACCGACAC | -0.312 ± 0.44 | -0.498 ± 1.1
ACATTTGTTGATACACCCATAAATTGATATTGCCACCCATAAATTGATATTGCTCACAACCATAAAGTGATATTTACTCTGATCATAGTCAGACCAACATTGCTACGACCCGTATTCGCACCGACAC | -0.811 ± 0.21 | 0.0649 ± 0.043
ACATTTGTTGATACAACCATAAAATGATAATTACACGGATAAATTGATAATTATCACACCCATAAATTGATATTGCCTCTGATCATAGTCAGACCAACATTGCTACGACCCGTATTCGCACCGACAC | -0.265 ± 0.13 | -0.469 ± 0.21
ACATTTGTTGATACAACCATAAAATGATAATTACTCTGATCATAGTCAGACCAACATTCACCCATAAATTGATAATTATCAGTGGGTATTTAACTATAACGGCTACGACCCGTATTCGCACCGACAC | -3.1 ± 0.26 | -0.137 ± 0.076
ACATTTGTTGATACAACCATAAGTTGATATTTTCAACCATAAAATGATAATTATCACAACCATAAGTTGATATTTTCTCTGATCATAGTCAGACCAACATTGCTACGACCCGTATTCGCACCGACAC | -0.233 ± 0.067 | -0.119 ± 0.45
ACATTTGTTGATACAACCATAAAGTGATATTTACAACCATAAAATGATAATTATCAGTGGGTATTTAACTATAACGCTCTGATCATAGTCAGACCAACATTGCTACGACCCGTATTCGCACCGACAC | -0.714 ± 0.27 | 2.86 ± 0.12
ACATTTGTTGATACAACCATAAAAGGATAATTACCCCCATCAATTGATAATTATCACACCCCATTTAACTATAACGCTCTGATCATAGTCAGACCAACATTGCTACGACCCGTATTCGCACCGACAC | -3.19 ± 0.27 | -0.157 ± 0.13
ACATTTGTGGATACAACCATAAAATGATAATTACACCCATAAATTGATAATTATCACCCCCAATTTAACTATAACGCTCTGATCATAGTCAGACCAACATTGCTACGACCCGTATTCGCACCGACAC | -0.606 ± 0.13 | 2.44 ± 0.065
ACATTTGTCGATACAACCCTAAAATGATAATTACACCCATAAATTGATCATTATCACACCCAATTTAACTATAACGCTCTGATCATAGTCAGACCAACATTGCTACGACCCGTATTCGCACCGACAC | -3 ± 0.31 | 0.178 ± 0.16
ACATTTGTTGATACAACCATAAAGTGATATTTACACCCATAAATTGATAATTATCACACCCATAAATTGATAATTACTCTGATCATAGTCAGACCAACATTGCTACGACCCGTATTCGCACCGACAC | 0.112 ± 0.071 | -0.191 ± 0.54
